Kd data for two molecules are collected here from article PMC4505066 (2015).

First the molecules themselves.
T1: HDAC4 catalytic domain C667A
T1 chain: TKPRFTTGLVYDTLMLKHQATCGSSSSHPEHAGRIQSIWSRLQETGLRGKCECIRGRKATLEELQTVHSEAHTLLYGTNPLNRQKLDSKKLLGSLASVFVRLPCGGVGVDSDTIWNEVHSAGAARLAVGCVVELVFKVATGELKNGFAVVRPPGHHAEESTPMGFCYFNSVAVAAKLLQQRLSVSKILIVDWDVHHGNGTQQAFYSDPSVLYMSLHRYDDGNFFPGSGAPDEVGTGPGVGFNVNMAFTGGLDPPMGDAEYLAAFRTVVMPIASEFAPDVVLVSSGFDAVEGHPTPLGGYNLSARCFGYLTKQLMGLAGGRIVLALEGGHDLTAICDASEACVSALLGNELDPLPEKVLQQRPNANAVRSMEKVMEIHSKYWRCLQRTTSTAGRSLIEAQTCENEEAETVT

T2: HDAC4 catalytic domain H675A
T2 chain: T1 chain with A20C, H28A

T3: HDAC4 catalytic domain C751A
T3 chain: T1 chain with A20C, C104A

T4: HDAC9 catalytic domain
T4 chain: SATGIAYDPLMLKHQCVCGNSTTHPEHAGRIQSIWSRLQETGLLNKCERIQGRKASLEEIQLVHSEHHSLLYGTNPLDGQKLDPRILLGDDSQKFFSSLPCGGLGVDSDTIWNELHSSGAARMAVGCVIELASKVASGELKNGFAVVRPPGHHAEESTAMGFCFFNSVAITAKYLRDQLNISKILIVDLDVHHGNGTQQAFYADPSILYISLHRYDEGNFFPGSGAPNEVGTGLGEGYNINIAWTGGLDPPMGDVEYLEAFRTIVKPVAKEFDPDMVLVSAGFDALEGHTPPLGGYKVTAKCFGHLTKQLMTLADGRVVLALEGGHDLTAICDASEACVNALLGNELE

T5: HDAC5 catalytic domain
T5 chain: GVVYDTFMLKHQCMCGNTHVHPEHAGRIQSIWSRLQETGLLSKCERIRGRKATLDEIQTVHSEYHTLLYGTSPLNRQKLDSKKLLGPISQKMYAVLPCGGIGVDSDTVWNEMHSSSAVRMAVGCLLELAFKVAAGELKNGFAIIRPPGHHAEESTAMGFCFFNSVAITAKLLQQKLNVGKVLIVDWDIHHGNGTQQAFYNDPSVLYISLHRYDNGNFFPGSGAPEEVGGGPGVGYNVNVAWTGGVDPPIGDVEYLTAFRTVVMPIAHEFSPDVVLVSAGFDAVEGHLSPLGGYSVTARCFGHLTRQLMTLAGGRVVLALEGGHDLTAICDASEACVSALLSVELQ

T6: full-length HDAC8 (UniProt Q9BY41 1-377)
T6 chain: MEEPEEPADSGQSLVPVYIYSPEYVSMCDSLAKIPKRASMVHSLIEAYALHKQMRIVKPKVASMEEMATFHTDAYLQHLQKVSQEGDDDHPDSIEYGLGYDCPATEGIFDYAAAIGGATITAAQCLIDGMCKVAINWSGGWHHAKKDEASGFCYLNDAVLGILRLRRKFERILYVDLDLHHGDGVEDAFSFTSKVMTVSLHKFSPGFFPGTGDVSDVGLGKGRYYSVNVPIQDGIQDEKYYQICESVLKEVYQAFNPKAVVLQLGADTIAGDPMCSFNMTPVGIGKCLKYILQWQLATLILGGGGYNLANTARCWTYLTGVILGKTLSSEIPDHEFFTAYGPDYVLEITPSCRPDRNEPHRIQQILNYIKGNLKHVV

T7: HDAC7 catalytic domain
T7 chain: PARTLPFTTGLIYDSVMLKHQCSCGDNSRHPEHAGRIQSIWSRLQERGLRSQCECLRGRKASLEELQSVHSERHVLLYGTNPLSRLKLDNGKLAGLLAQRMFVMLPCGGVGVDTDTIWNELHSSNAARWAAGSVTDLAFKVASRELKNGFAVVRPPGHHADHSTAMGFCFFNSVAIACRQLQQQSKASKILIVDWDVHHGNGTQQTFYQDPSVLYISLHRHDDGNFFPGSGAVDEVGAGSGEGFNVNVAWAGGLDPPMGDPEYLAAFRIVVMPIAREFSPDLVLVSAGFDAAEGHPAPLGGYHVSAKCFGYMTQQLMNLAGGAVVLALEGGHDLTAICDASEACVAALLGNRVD

B1: HDAC4 catalytic domain, wild type (domain or fragment)
chain: T1 chain with A20C

Assay [1] concerns the target T1, HDAC4 catalytic domain C667A. Description: FP.
The target in assay [2] is B1. Kind of assay: FP.
For assay [3], the target named is T2, HDAC4 catalytic domain H675A. Kind of assay: FP.
Assay [4] addresses HDAC4 catalytic domain L728A (UniProt P56524 648-1033, L728A). Description: FP.
Assay [5] has as its target T3, HDAC4 catalytic domain C751A. Description: FP.
Assay [6] addresses T4, HDAC9 catalytic domain. Kind of assay: FP.
The target of assay [7] is B1. Kind of assay: FP.
Assay [8] addresses T5, HDAC5 catalytic domain. Kind of assay: FP.
Assay [9] concerns the target T6, full-length HDAC8. Kind of assay: FP.
Assay [10] has as its target T7, HDAC7 catalytic domain. Description: FP.
For assay [11], the target named is T8, GSI motif peptide with a mutation to Gln-5 of the motif (UniProt Q9Y618, BODIPY-TMR coupled to the N-terminal cysteine). Description: FP; Q5E peptide.
For assay [12], the target named is T8, GSI motif peptide with a mutation to …. Description: FP; Q5A peptide.
In assay [13] the target is T9, GSI motif peptide with a mutation to Thr-4 of the motif (UniProt Q9Y618, BODIPY-TMR coupled to the N-terminal cysteine). Kind of assay: FP; T4A peptide.
Assay [14] addresses T9, GSI motif peptide with a mutation to …. Description: FP; T4V peptide.
Assay [15] deals with GSI motif peptide with a mutation to Pro-8 of the motif (UniProt Q9Y618, BODIPY-TMR coupled to the N-terminal cysteine). Kind of assay: FP; P8A peptide.

Numbering of substitutions follows the chain as printed. “And” between values parts separate entries of the source, which are not always exact repeats. Equal entries are not always repeated. Where two headings read alike, the source gives them in different places. No end group written: not given here. Bounds are passed on as bounds.

Sequence of HDAC4 catalytic domain L728A (P56524 648-1033 L728A): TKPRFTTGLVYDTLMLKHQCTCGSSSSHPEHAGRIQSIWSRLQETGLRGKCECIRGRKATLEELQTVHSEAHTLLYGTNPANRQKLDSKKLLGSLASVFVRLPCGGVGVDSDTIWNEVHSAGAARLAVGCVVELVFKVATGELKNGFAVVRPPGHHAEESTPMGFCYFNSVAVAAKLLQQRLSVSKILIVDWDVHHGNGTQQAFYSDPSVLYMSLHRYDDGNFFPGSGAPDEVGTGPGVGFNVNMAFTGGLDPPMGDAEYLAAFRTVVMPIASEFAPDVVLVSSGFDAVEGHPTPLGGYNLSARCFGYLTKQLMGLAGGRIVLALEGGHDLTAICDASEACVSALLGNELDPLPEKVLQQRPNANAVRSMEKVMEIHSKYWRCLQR

For the molecule C(BODIPY‑TMR)PRPLKEGSITQGTPLKYDTG, the Kd in assay [1] was more than 1000 µM; in assay [2], 5.6 µM; in assay [3] it was more than 1000 µM; in assay [4] it was 4.59 µM; in [5], more than 1000 µM; in [6], 8.34 µM. For the same molecule, the Kd in [7] was 5.74 µM and 6.5 µM; in assay [8], 4.24 µM; in [9], more than 1000 µM; in assay [10], 4.44 µM.
For B1, the Kd came out at 17.7 µM in assay [11]; 5.47 µM in assay [12]; 14.4 µM in assay [13]; 16.9 µM in [14]; 47 µM in assay [15].

Usually Kd stands for the free concentration of one partner at which half of the binding sites on the other are occupied at equilibrium, for simple one-to-one binding.
